In patent US20240002498A1 (TENEOBIO, published 2024):

What was measured:
[1] = target: T1, human Folate Receptor Alpha (FOLR1) on cells (human, UniProt P15328 25-234); assay: cell binding, IGROV-1 cells
T1 construct: whole, on cells; Endogenous on IGROV-1, OVCAR-3, SKOV-3, HT-29 cells; transfected on CHO cells; the cell is named under assay; also called FRα; FRa

[2] = target: T1, human Folate Receptor Alpha (FOLR1) on …; assay: cell binding, CHO cells stably expressing human FOLR1
cyno FOLR1 on CHO cells [3] = target: T2, cyno FOLR1 on CHO cells (cyno (Cynomolgus macaque), UniProt A0A2K5U044 25-234); assay: flow cytometry, CHO cells stably expressing cyno FOLR1
T2 construct: whole, on cells; also called cyFOLR1

[4] = target: T1, human Folate Receptor Alpha (FOLR1) on …; assay: flow cytometry, IGROV-1 cells
[5] = target: T1, human Folate Receptor Alpha (FOLR1) on …; assay: cell binding, OVCAR-3 cells
cyno FOLR1 on CHO cells [6] = target: T2, cyno FOLR1 on CHO cells; assay: cell binding, CHO cells stably expressing cyno FOLR1
CHO_huFOLR2 = target: T3, CHO_huFOLR2 (human, UniProt P14207); assay: flow cytometry on CHO cells stably expressing human FOLR2, MFI fold over background
T3 construct: stably expressed on CHO cells; also called human FOLR2 on CHO cells; folate receptor beta
Experimental: Anti-FOLR1 HCAb binding to CHO cells stably expressing human FOLR2 (also known as folate receptor beta, FRβ), and CHO cells stably expressing human IZUMO1R (also known as folate receptor delta, FOLR4, FRδ, JUNO) was analyzed for a number of different clones. Data are presented in FIG. 2, panels A-B, as MFI fold over background. Insets show binding of positive control anti-FOLR2 and anti-IZUMO1R antibodies, respectively, in dark grey, compared to the respective isotype control in light grey.

[7] = target: T1, human Folate Receptor Alpha (FOLR1) on …; assay: flow cytometry, CHO cells stably expressing human FOLR1
recombinant human FOLR1 = recombinant human FOLR1 (human, UniProt P15328 25-234); assay: BLI, Octet QK-384, recombinant human FOLR1
Experimental: As used herein, the “Kd” or “Kd value” refers to a dissociation constant determined by BioLayer Interferometry, using an Octet QK384 instrument (Fortebio Inc., Menlo Park, CA) in kinetics mode. For example, anti-mouse Fc sensors are loaded with mouse-Fc fused antigen and then dipped into antibody-containing wells to measure concentration dependent association rates (kon). Antibody dissociation rates (koff) are measured in the final step, where the sensors are dipped into wells containing buffer only. The Kd is the ratio of koff/kon. (For further details see, Concepcion, J, et al., Comb Chem High Throughput Screen, 12 (8), 791-800, 2009).
Table 17 summarizes affinity and epitope bin information for anti-FOLR1 heavy chain antibodies (HCAbs). Column 1 indicates the clone ID of the HCAb. Column 2 indicates the affinity of the HCAb to recombinant human FOLR1 as measured by Bio-layer interferometry (BLI) using an Octet QK-384. Column 3 indicates the epitope bin of HCAb as determined by a competition BLI binding experiment using an Octet QK-384.

[8] = target: T4, FOLR3 (folate receptor gamma) (UniProt P41439 23-245, limits assumed); assay: BLI (Octet)
T4 construct: also called FRγ

mouse FOLR1 on CHO cells = target: T5, mouse FOLR1 on CHO cells (mouse, UniProt P35846 25-232); assay: cell binding, CHO cells stably expressing mouse FOLR1
T5 construct: whole, on cells; also called msFOLR1
T5 sequence (P35846 25-232): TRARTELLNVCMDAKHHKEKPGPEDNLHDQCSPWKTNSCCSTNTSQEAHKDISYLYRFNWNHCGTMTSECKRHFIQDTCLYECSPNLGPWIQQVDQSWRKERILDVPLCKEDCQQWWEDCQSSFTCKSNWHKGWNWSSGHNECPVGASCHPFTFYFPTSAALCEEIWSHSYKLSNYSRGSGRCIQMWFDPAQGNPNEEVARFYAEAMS

T1 sequence (P15328 25-234): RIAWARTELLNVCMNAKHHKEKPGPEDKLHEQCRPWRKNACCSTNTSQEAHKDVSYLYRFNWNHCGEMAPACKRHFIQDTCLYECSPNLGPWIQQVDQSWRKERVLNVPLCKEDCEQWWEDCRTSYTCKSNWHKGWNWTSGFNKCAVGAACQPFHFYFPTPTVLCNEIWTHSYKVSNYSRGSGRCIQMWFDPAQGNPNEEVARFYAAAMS
Sequence of recombinant human FOLR1 (P15328 25-234 limits assumed): as the sequence (P15328 25-234) above
T2 sequence (A0A2K5U044 entry or part of it): as the sequence (P15328 25-234) above, with I2T, W4R, R37K, A146P, H171Y counted along it
T3 sequence (P14207 17-230 limits assumed): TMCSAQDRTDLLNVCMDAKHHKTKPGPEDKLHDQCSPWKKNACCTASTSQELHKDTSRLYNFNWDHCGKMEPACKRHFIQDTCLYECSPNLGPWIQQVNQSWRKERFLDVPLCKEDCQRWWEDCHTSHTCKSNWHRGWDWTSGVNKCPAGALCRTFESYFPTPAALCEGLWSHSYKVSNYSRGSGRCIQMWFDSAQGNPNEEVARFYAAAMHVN
T4 sequence (P41439 23-245 limits assumed): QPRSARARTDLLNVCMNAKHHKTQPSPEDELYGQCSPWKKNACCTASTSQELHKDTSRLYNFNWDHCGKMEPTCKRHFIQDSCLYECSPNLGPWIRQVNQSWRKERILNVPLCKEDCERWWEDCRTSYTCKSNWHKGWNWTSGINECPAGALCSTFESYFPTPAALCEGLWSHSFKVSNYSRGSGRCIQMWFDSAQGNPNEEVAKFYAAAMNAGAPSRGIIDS

EC50 [1] [nM] | EC50 [2] [nM] | fold over background MFI (cyno FOLR1 on CHO cells [3]) [fold over background] | fold over background MFI [4] [fold over background] | EC50 [5] [nM] | EC50 (cyno FOLR1 on CHO cells [6]) [nM] | binding result (CHO_huFOLR2) | fold over background MFI [7] [fold over background] | Kd (recombinant human FOLR1) [nM] | binding result [8] | EC50 (mouse FOLR1 on CHO cells) [nM] | Binder
3.9 | 5.1 | 465 | 711 | 3.3 | 5 | binds | 1220 | 8.7 | – | – | anti-FOLR1 heavy chain antibody (HCAb, UniAb) clone ID 352317 (antibody, V domains shown, Heavy chain-only antibody (no light chain), F14 family) VH: EVQLVESGGGLVKPGGSLRLSCAASGFTFSSYSMNWVRQAPGKGLEWVSSISSGSSYIYYADSVKGRFTISRDNAKNSLYLQMNSLRAEDTAVYYCARDVTSGIAAAGSAFNIRGQGTLVTVSS
4 | 4 | 2350 | – | 1.2 | 4.3 | – | 2240 | 7.62 | no binding | 2.6 | anti-FOLR1 heavy chain antibody (HCAb, UniAb) clone ID 358474 (antibody, V domains shown, Heavy chain-only antibody (no light chain), F14 family) VH: EVQLVESGGGLVKPGGSLRLSCAASGFTFSSYSMNWVRQAPGKGLEWVSSISSGSSYIYYADSVKGRFTISRDNAKNSLYLQMNSLRAEDTAIYYCARDVTSGIAAAGSAFNIRGQGTLVTVSS
4.1 | 3.8 | 179 | 548 | 3.1 | 4.3 | binds | 1230 | 32.9 | – | – | anti-FOLR1 heavy chain antibody (HCAb, UniAb) clone ID 352368 (antibody, V domains shown, Heavy chain-only antibody (no light chain), F14 family) VH: EVQLVESGGGLVKPGGSLRLSCAASGFNFRSFGMTWLRQAPGKGLEWVSSISSGSSYIYYADSVKGRFTISRDNAKNSLYLQMNSLRAEDTAVYYCARDVTSGIAAAGAAFNIRGQGTLVTVSS
4.1 | 5.9 | 2530 | – | 1.3 | 3.1 | – | 1980 | 6.34 | – | 3.6 | anti-FOLR1 heavy chain antibody (HCAb, UniAb) clone ID 358433 (antibody, V domains shown, Heavy chain-only antibody (no light chain), F14 family) VH: EVQLVESGGGLVKPGGSLRLSCAASGFIFSSYSMNWVRQAPGKGLEWVSSISSGSSYIYYADSVKGRFTISRDNAKNSLYLQMNSLRAEDTAVYYCARDVTSGIAAAGSAFNIRGQGTLVTVSS
5 | 4.2 | 362 | 1960 | 2.4 | 4.2 | binds | 1590 | 12.5 | – | – | anti-FOLR1 heavy chain antibody (HCAb, UniAb) clone ID 352477 (antibody, V domains shown, Heavy chain-only antibody (no light chain), F14 family) VH: EVQLVESGGGLVKPGGSLRLSCAASGFTFSSYSMNWVRQAPGKGLEWVSSISSGSSYIYYADSVKGRFTISRDNARNSLYLQMNSLRAEDTAVYYCARDVTSGIAAAGSAFNIRGQGTLVTVSS
3.3 | 4.2 | 1520 | – | 1.5 | 3.4 | – | 1230 | 6.78 | no binding | 3.2 | anti-FOLR1 heavy chain antibody (HCAb, UniAb) clone ID 358454 (antibody, V domains shown, Heavy chain-only antibody (no light chain), F14 family) VH: EVQLVESGGGLVQPGGSLRLSCAASGFTFSSYSMNWVRQAPGKGLEWVSSISSGSSYIYYADSVKGRFTISRDNAKNSLYLQMNSLRAEDTAVYFCARDVTSGIAAAGSAFNIRGQGTLVTVSS
3.6 | 4.6 | 2520 | – | 1.1 | 3 | – | 2080 | 6.82 | – | 2.5 | anti-FOLR1 heavy chain antibody (HCAb, UniAb) clone ID 358457 (antibody, V domains shown, Heavy chain-only antibody (no light chain), F14 family) VH: EVQLVESGGGLVQPGGSLRLSCAASGFTFSSYSMNWVRQAPGKGLEWVSSISSGSSYIYYADSVKGRFTISRDNAKNSLYLQMNSLRDEDTAVYYCARDVTSGIAAAGSAFNIRGQGTLVTVSS
2.8 | 5.5 | 198 | 646 | 2.8 | 2.7 | no binding (tested: 100 nM) | 944 | 34.8 | – | – | anti-FOLR1 heavy chain antibody (HCAb, UniAb) clone ID 352391 (antibody, V domains shown, Heavy chain-only antibody (no light chain), F18 family) VH: EVQLVESGGGLVQPGGSLRLSCAASGFSFSSYSMKWVRQAPGKGLEWVSYISSSSDTIEYADSVKGRFTISRDNAKNSLYLQMNSLRDEDTAVYYCASVGLDFDYRGQGTLVTVSS
3.8 | 3.5 | 157 | 1740 | 1.1 | 4.3 | no binding (tested: 100 nM) | 1410 | 41.8 | – | – | anti-FOLR1 heavy chain antibody (HCAb, UniAb) clone ID 352496 (antibody, V domains shown, Heavy chain-only antibody (no light chain), F18 family) VH: EVQLVESGGGLVKPGGSLRLSCAASGFSFSSYSMKWVRQAPGKGLEWVSYISSSSDTIEYADSVKGRFTISRDNAKNSLYLQMNSLRDEDTAVYYCASVGLDFDYRGQGTLVTVSS
5 | 4.3 | 159 | 1640 | 3.3 | 2.1 | no binding (tested: 100 nM) | 1480 | 37.4 | – | – | anti-FOLR1 heavy chain antibody (HCAb, UniAb) clone ID 352491 (antibody, V domains shown, Heavy chain-only antibody (no light chain), F18 family) VH: EVQLVESGGGLVQPGGSLRLSCAASGFSFSSYSMKWVRQAPGKGLEWVSYISSSSDTIEYAGSVKGRFTISRDNAKNSLYLQMNSLRDEDTAVYYCASVGLDFDYRGQGTLVTVSS
3.7 | 5.4 | 84.5 | 1790 | 32.6 | 5.7 | no binding (tested: 100 nM) | 816 | 81.1 | – | – | anti-FOLR1 heavy chain antibody (HCAb, UniAb) clone ID 352564 (antibody, V domains shown, Heavy chain-only antibody (no light chain), F18 family) VH: EVQLVESGGGLVQPGGSLRLSCAASGFSFSSYSMKWVRQAPGKGLEWVSYITSSSSTIEYADSVKGRFTISRDNAKNSLYLQMNSLRDEDTAVYYCASVGLEFDYRGQGTLVTVSS
4.6 | 3.8 | 97.4 | 594 | – | 3.3 | no binding (tested: 100 nM) | 906 | 125 | – | – | anti-FOLR1 heavy chain antibody (HCAb, UniAb) clone ID 352365 (antibody, V domains shown, Heavy chain-only antibody (no light chain), F18 family) VH: EVQLVESGGGLVQPGGSLRLSCAASGFSFSSYSMKWVRQAPGKGLEWVSYISSSSSTIEYADSVKGRFTISRDNAKNSLYLQMNSLRDEDTAVYYCATVGLDFDYRGQGTLVTVSS
3.6 | 4.6 | 123 | 506 | 4.9 | 3.4 | no binding (tested: 100 nM) | 1130 | 52.7 | – | – | anti-FOLR1 heavy chain antibody (HCAb, UniAb) clone ID 352372 (antibody, V domains shown, Heavy chain-only antibody (no light chain), F18 family) VH: EVQLVESGGGLVQPGGSLRLSCAASGFSFSSYSMKWVRQAPGKGLEWVSYISSSSDTIEYADSVKGRFTISRDNAKNSLYLQMNSLRDEDTAVYYCASVGLEFDYRGQGTLVTVSS
8.8 | 5.9 | 623 | 2300 | 6.3 | 2.9 | no binding (tested: 100 nM) | 1070 | 36 | – | – | anti-FOLR1 heavy chain antibody (HCAb, UniAb) clone ID 352672 (antibody, V domains shown, Heavy chain-only antibody (no light chain), F18 family) VH: EVQLVESGGGLVQPGGSLRLSCAASGFSFSSYSMKWVRQAPGKGLEWVSYISRSSDTIEYADSVKGRFTISRDNAKNSLYLQMNSLRDEDTAVYYCATVGLDFDYRGQGTLVTVSS
